Reference: the supplement of paper PMC9170038

Legend:
MS2 coat protein [1] = assay: apparent KD of MS2 coat protein, switch ON state; designed switch direction (-1 OFF switch, 1 ON switch): -1; higher = weaker reporter binding; details: FMN input: 0 or 200 uM; Eterna round: R93 (includes R88 designs)
Summary of the method: (§1)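 Normalised binding curves from single clusters were fitted, and the median fit for each design is given as apparent KD. The clusters held designed RNA switches transcribed on-chip from Illumina sequencing clusters. These were titrated with SNAP-549-labelled MS2 coat protein (twofold steps from 0.7 or 1.5 nM to 3 µM, 0.8–1.5 h to 10–20 min per step) in 100 mM Tris-HCl pH 7.5, 80 mM KCl, 4 mM MgCl2, without or with constant ligand.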

MS2 coat protein [2] = assay: apparent KD of MS2 coat protein, switch OFF state (with FMN for OFF switches, without FMN for ON switches); designed switch direction (-1 OFF switch, 1 ON switch): -1; higher = weaker reporter binding; details: FMN input: 0 or 200 uM; Eterna round: R93 (includes R88 designs)
Summary of the method: as §1

Sequence: CUCAAGUUAGGAUAUCAAAGAAAAGAAGAGAAAGAAAAGAAUGAGAAGGAACAUGAGGAUCACCCAUGUAAGAA [EteRNA is fun!]
- apparent KD of MS2 coat protein (MS2 coat protein [1]): 33.4 nM
- apparent KD of MS2 coat protein (MS2 coat protein [2]): 22.4 nM

Sequence: CUCAAGUUAGGAUAUCGAAGAAAAGAAGAGAAAGAAAAGAACGAGAAGGAACAUGAGGAUCACCCAUGUAAGAA [EteRNA is fun!]
- apparent KD of MS2 coat protein (MS2 coat protein [1]): 11.8 nM
- apparent KD of MS2 coat protein (MS2 coat protein [2]): 21.7 nM

Sequence: CUCAUGUCAGGAUAUCAGUAGUAAAAAAAAAAAAUUACUACUGAGAAGGGACAUGAGGAUCACCCAUGUCCAUU [EX4 304: Super Stable 4]
- apparent KD of MS2 coat protein (MS2 coat protein [1]): 53 nM
- apparent KD of MS2 coat protein (MS2 coat protein [2]): 36.9 nM

Sequence: CUCAUGUCAGGAUAUGUAGCAUGAUACGAAAGUAUCAUGCUACAGAAGGGACAUGAGGAUCACCCAUGUAAAAA [Ex4: 942]
- apparent KD of MS2 coat protein (MS2 coat protein [1]): 20.2 nM
- apparent KD of MS2 coat protein (MS2 coat protein [2]): 33.9 nM

Sequence: CUCAUGUGAGGAUAUCAGUAGUAAAAAAAUAAAAUUACUACUGAGAAGGCACAUGAGGAUCACCCAUGUGAAAA [EX4 339: Super Stable 39]
- apparent KD of MS2 coat protein (MS2 coat protein [1]): 27.4 nM
- apparent KD of MS2 coat protein (MS2 coat protein [2]): 16.1 nM

Sequence: CUCAUGUGAGGAUAUCAGUAGUAAAAAAAUAAAAUUACUACUGAGAAGGCACAUGAGGAUCACCCAUGUGUCUU [EX4 331: Super Stable 31]
- apparent KD of MS2 coat protein (MS2 coat protein [1]): 45.8 nM
- apparent KD of MS2 coat protein (MS2 coat protein [2]): 27.2 nM

Sequence: CUCUAGUCAGGAUAUCGAAGAAAAGAAGAGAAAGAAAAGAACGAGAAGGGACAUGAGGAUCACCCAUGUAAGAA [EteRNA is fun!]
- apparent KD of MS2 coat protein (MS2 coat protein [1]): 50 nM
- apparent KD of MS2 coat protein (MS2 coat protein [2]): 39.2 nM

Sequence: CUCUUGUCAGGAUAUGGAAGAAAAGAAAAGAAAGAAAAGAACCAGAAGGGACAUGAGGAUCACCCAUGUAAGAA [EteRNA is fun!]
- apparent KD of MS2 coat protein (MS2 coat protein [1]): 156 nM
- apparent KD of MS2 coat protein (MS2 coat protein [2]): 37.7 nM

Sequence: CUCUUGUCAGGAUAUGUAAGAAAAGAAAAGAAAGAAAAGAAACAGAAGGGACAUGAGGAUCACCCAUGUAAGAA [EteRNA is fun!]
- apparent KD of MS2 coat protein (MS2 coat protein [1]): 78.9 nM
- apparent KD of MS2 coat protein (MS2 coat protein [2]): 53.1 nM

Sequence: CUCUUGUGAGGAUAUCAAAGAAAAGAAAAGAAAGAAAAGAAUGAGAAGGCACAUGAGGAUCACCCAUGUAAGAA [EteRNA is fun!]
- apparent KD of MS2 coat protein (MS2 coat protein [1]): 36.4 nM
- apparent KD of MS2 coat protein (MS2 coat protein [2]): 59.5 nM

Sequence: CUUAAGUGAGGAUAUCAGUAGUAAAAAAAUAAAAUUACUACUGAGAAGGCACAUGAGGAUCACCCAUGUUCCAA [EX4 341: Super Stable 41]
- apparent KD of MS2 coat protein (MS2 coat protein [1]): 29.7 nM
- apparent KD of MS2 coat protein (MS2 coat protein [2]): 38.1 nM

Sequence: CUUAUGUGAGGAUAUGUACAGAAAAAACUGGGUGUAACUGUACAGAAGGCACAUGAGGAUCACCCAUGUAAAAA [EX4 387: S S Pseudoknot 12]
- apparent KD of MS2 coat protein (MS2 coat protein [1]): 36.4 nM
- apparent KD of MS2 coat protein (MS2 coat protein [2]): 31 nM

Sequence: GAAAAACAUGAGGAUCACCCAUGUCAGGAUAUCGAAAAAUAAAUAAAAAUAAAAUAAACGAGAAGGGACAAAAG [Mat - Same state - Mayanna Mod - D111]
- apparent KD of MS2 coat protein (MS2 coat protein [1]): 50.2 nM
- apparent KD of MS2 coat protein (MS2 coat protein [2]): 61.1 nM

Sequence: GAAAAAGGAGGAUAUACGUACAUGUCAAAAGACGUGAAGGGACAUGAGGAUCACCCAUGUAGAAGGCUUAAAAG [Mat - Exclusion 2 - JL mod - D95]
- apparent KD of MS2 coat protein (MS2 coat protein [1]): 59.4 nM
- apparent KD of MS2 coat protein (MS2 coat protein [2]): 21.4 nM

Sequence: GAAAAGUCAGGAUAUGCAGAUAAAAAAACGAAAAAAAAUCUGCAGAAGGGACAUGAGGAUCACCCAUGUAAAAG [Mat - Exclusion 4 - Mayanna - D110]
- apparent KD of MS2 coat protein (MS2 coat protein [1]): 66.3 nM
- apparent KD of MS2 coat protein (MS2 coat protein [2]): 54.2 nM

Sequence: GAAAAGUGAGGAUAUACAGAUAAAAAAACGAAAAAAAAUCUGUAGAAGGCACAUGAGGAUCACCCAUGUAAAAG [Mat - Exclusion 4 - Mayanna - D107]
- apparent KD of MS2 coat protein (MS2 coat protein [1]): 36 nM
- apparent KD of MS2 coat protein (MS2 coat protein [2]): 36.6 nM

Sequence: GAAAAGUGAGGAUAUUCGGAUAGGAAAACGAAAACCUAUCCGAAGAAGGCACAUGAGGAUCACCCAUGUGAAAA [Mat - Exaclusion 4 - Eli mod - D44]
- apparent KD of MS2 coat protein (MS2 coat protein [1]): 22.4 nM
- apparent KD of MS2 coat protein (MS2 coat protein [2]): 26.8 nM

Sequence: GAAAAGUUAGGAUAUACAGAUAAAAAAACGAAAAAAAAUCUGUAGAAGGAACAUGAGGAUCACCCAUGUAAAAA [Mat - Exclusion 4 - Mayanna - D104]
- apparent KD of MS2 coat protein (MS2 coat protein [1]): 30.7 nM
- apparent KD of MS2 coat protein (MS2 coat protein [2]): 15.5 nM

Sequence: GAAAAUUGAGGAUAUACGAACAUGUCAAAAGACGUGAAGGGACAUGAGGAUCACCCAUGUAGAAGGCGAAAGAG [Mat - Exclusion 2 - JL mod - D92]
- apparent KD of MS2 coat protein (MS2 coat protein [1]): 58.6 nM
- apparent KD of MS2 coat protein (MS2 coat protein [2]): 14.1 nM

Sequence: GAAAGGGCAGGAUAUGCAGAGAGAAAAAAAAAAAAAAAAAAACAUGAGGAUCACCCAUGUAGAAGGGCCGAAAG [salish99-ex2-03]
- apparent KD of MS2 coat protein (MS2 coat protein [1]): 34.7 nM
- apparent KD of MS2 coat protein (MS2 coat protein [2]): 48.1 nM
